{"source": "paper PMC10746158", "about": "(mBio, 2023)", "proteins": {"B1": {"name": "Sulfolobus acidocaldarius GPN-loop GTPase SaGPN (Saci_1281) (enzyme)", "chain": "YFIFVLGTAGSGKTTLVKALQDYLLNNELDTAIINLDPAVEVLPYKPDIDAREYVDVYDVMNKYELGPNSSLVISVDLLLTKAKELKEDLNQLQANYVLVDTPGQIELFAYRDTGKILSSFISEGSKSVSVFLFDSYLSKDPKSFLSLFLLSSSIKFRIDMPQISVLSKVDLLSSSELERMRSWIEDGSIIDELGSIDEYSFELVKTIVENLESFPIPVSSTNFSGLDQLYAEVQKVLAGGEDFETEEPNPRL", "notes": "SaGPN (Saci_1281), the solitary GPN-loop GTPase of Sulfolobus acidocaldarius, Uniprot Q4J9A7; residues Y2-A240 were built in both structures, 14 amino acids at the C-terminus are disordered; printed mass 30.5 kDa; Crystallised with GppNHp or GDP and Mg2+; source: E. coli BL21(DE3) Rosetta, purified (heat treatment, Ni-NTA, SEC); not shown: His10, N-terminal, kept"}}, "target": "the molecule itself", "assay": "SEC; HiLoad 16/60 Superdex 200 pg; 150 mM NaCl, 50 mM Tris, 10 mM MgCl2, pH 8.0; monodisperse peak at ~60 kDa against 30.5 kDa for the monomer"}
{"protein": "B1", "values": [{"measurement": "stoichiometry N", "result": 2}]}
